# According to article PMC8304084, “A Concerted Action of UBA5 C-Terminal Unstructured Regions Is Important for Transfer of Activated UFM1 to UFC1” (International Journal of Molecular Sciences, 2021):
# Legend:
# Assay type in all cases: binding
# AD^1–330 = test: NMR titration of R1-R2-R3^325–404 with UBA5 AD^1–330; conditions: 2-fold molar excess of AD^1–330, 900 MHz
# Experimental: All NMR experiments were performed at a sample temperature of 25 °C on Bruker 600, 700, 800, 900, and 950 MHz spectrometers equipped with cryogenic probes, and a 500 MHz spectrometer equipped with a room-temperature triple-resonance probe. All NMR spectra were analyzed with the Sparky 3.114 software (University of California, San Francisco, USA). For NMR titration experiments, the non-labeled UBA5 peptides were titrated to 100 µM ^13C,^15N-labeled UFC1 to a final molar ratio of 1:8 (UFC1:UBA5 peptide). Conversely, 100 µM ^13C,^15N-labeled UBA5 peptides were titrated with non-labeled UFC1 to a final molar ratio 1:4 (UBA5 peptide:UFC1). 2D ^1H-^15N correlation spectra ([^15N,^1H] TROSY-HSQC) were recorded at each titration point. The same types of spectra were recorded to estimate binding of ^13C,^15N-labeled UFC1 (75 µM) to non-labeled UBA5, UBA5~UFM1 and UFM1 at 1:2 molar ratios. CSP values, Δδ, were calculated for each individual amide group using the formula Δδ = [(ΔδN/5)^2 + Δδ^2HN)]^1/2. […]
# experiment, non‐labelled AD1–330 construct was added to the 15N‐labelled R1‐R2‐R3325–404 peptide to a 2‐fold molar excess.
# Representative area of [15N,1H] TROSY‐HSQC spectra recorded at 900 MHz for R1‐R2‐R3325–404 in free form (red contours) and in presence of AD1–330 (blue contours) are overlaid. […]
# GABARAPL2 = biological target: T1, GABARAPL2 (Homo sapiens, UniProt P60520); test: ITC, UBA5 peptides vs GABARAPL2; conditions: 25 °C
# T1 construct: modified ubiquitin tag (Ub19) with TEV site (N, cleaved yes); made in house; host or cells: E. coli T7 Express
# T1 sequence (P60520 3-116): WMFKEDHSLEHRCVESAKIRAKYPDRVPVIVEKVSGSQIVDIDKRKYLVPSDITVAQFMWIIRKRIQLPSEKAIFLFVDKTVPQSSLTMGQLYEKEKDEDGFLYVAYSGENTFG
# Source text: (§1) To understand how the UBA5 C-terminus participates in the ufmylation cascade, we performed isothermal titration calorimetry (ITC) experiments, in which we titrated UBA5 C-terminal peptides (see Table 1) to the UBA5 AD, UFC1, UFM1 and representative LC3/GABARAP proteins (Figure 2A, Supplementary Figure S2A–D and Table 2).
# (§2) All proteins and peptides were expressed in E.Coli T7 Express (New England Biolabs GmbH, Frankfurt, Germany) cells in LB or M9 (to obtain ^15N- and ^13C,^15N-labeled polypeptides) media according to the protocol described in [33, 36]. For protein purification, bacterial cell pellets were resuspended in lysis buffer (50 mM Tris-HCl pH = 7.5, 100 mM NaCl, 5% glycerol, 5 mM PIC (protease inhibitor cocktail)) and lysed via sonication (TT13 Sonotrode, 40% amplitude, for 6 × 1 min with a 0.5/0.5-s pulse). Lysates were centrifuged for 45 min at 17,000× g at 4 °C. Supernatants were loaded onto a His Trap Fast Flow 5 mL column (GE Healthcare, München, Germany) equilibrated in loading buffer (50 mM Tris-HCl pH = 8.0, 250 mM NaCl, 1% glycerol, 20 mM imidazole). The column was washed with loading buffer for 5–10 CV and protein was eluted with elution buffer (50 mM Tris-HCl pH = 8, 250 mM NaCl, 1% glycerol, 400 mM imidazole). Simultaneous TEV cleavage (1 mg TEV protease was added to 100 mg peptides/proteins) and buffer exchange to loading buffer via dialysis was performed over night at 4 °C. After reverse IMAC, proteins were concentrated with conical concentrators (Millipore Merck, Darmstadt, Germany) and loaded on a Superdex 10/60 75 or 200 column (GE Healthcare, München, Germany) for further purification and equilibration with ITC/NMR buffer (25 mM HEPES pH = 7.5, 100 mM NaCl). For structural NMR spectroscopy, buffer containing 50 mM Tris-HCl pH = 7.5, 100 mM NaCl was used. Prior to NMR experiments, TCEP and protease inhibitors cocktail were added to the samples to final concentrations 1 and 5 mM, respectively. Purified peptides and protein were concentrated and stored at −80 °C. The protein and peptide concentrations were calculated from the UV absorption at 280 nm by Nanodrop spectrophotometer (Thermo Scientific, Langenselbold, Germany).
# (§3) All ITC experiments were performed at 25 °C using a VP-ITC microcalorimeter (Malvern Panalytical Ltd., Malvern, UK). Peptides in concentration of ~400 µM were titrated into 20–25 µM solutions of corresponding binding partner at a stirring speed of 307 rpm. The raw data were corrected on the dilution heat of peptides obtained in independent experiment (titration of the peptide in syringe into the ITC/NMR buffer in the measuring cell). Pre-titration delay was set to 180 s, interval between titration steps was experimentally adjusted to avoid kinetic contribution to the observed heat effects and set to 200 s. A single ITC profile was collected for each type of interaction. The ITC data were analyzed based on a “one-site” binding model with MicroCal ITC software implemented in Origin 7.0.
# UBA5 AD^1–330 = test: ITC, UBA5 C-terminus vs UBA5 AD; conditions: 25 °C, R1-R2-R3^325–404 titrated into AD^1–330 solution
# Source text: as §1
# All proteins and peptides were expressed in E.Coli T7 Express (New England Biolabs GmbH, Frankfurt, Germany) cells in LB or M9 (to obtain ^15N- and ^13C,^15N-labeled polypeptides) media according to the protocol described in [33, 36]. For protein purification, bacterial cell pellets were resuspended in lysis buffer (50 mM Tris-HCl pH = 7.5, 100 mM NaCl, 5% glycerol, 5 mM PIC (protease inhibitor cocktail)) and lysed via sonication (TT13 Sonotrode, 40% amplitude, for 6 × 1 min with a 0.5/0.5-s pulse). Lysates were centrifuged for 45 min at 17,000× g at 4 °C. […] The protein and peptide concentrations were calculated from the UV absorption at 280 nm by Nanodrop spectrophotometer (Thermo Scientific, Langenselbold, Germany).
# All ITC experiments were performed at 25 °C using a VP-ITC microcalorimeter (Malvern Panalytical Ltd., Malvern, UK). […] The ITC data were analyzed based on a “one-site” binding model with MicroCal ITC software implemented in Origin 7.0. […]
# LC3B = biological target: T2, LC3B (Homo sapiens, UniProt Q9GZQ8); test: ITC, UBA5 peptides vs LC3B; conditions: 25 °C, vs LC3B
# T2 construct: LC3B, residues 5–120; ubiquitin tag Ub3 (vector pETm60_Ub3) (cleaved yes); made in house; host or cells: E. coli T7 Express
# Source text: as §1, §2, §3
substance,measurement,setting,value
"R1-R2-R3^325–404: UBA5 C-terminal part, residues 325–404 (recombinant, E. coli)",interaction with UBA5 AD,AD^1–330,No interactions
same,ΔG,GABARAPL2; vs GABARAPL2,-9.25 kcal/mol
same,ΔS,GABARAPL2; vs GABARAPL2,2.04 cal mol^−1 K^−1
same,−T*ΔS,GABARAPL2; vs GABARAPL2,-0.61 kcal/mol
same,KA*10^−6,"GABARAPL2; vs GABARAPL2, value is KA × 10^−6, ± = fitting error",5.99 ± 0.49 M^−1
same,interaction with UBA5 AD,UBA5 AD^1–330,does not interact with the UBA5 AD
same,interaction with UBA5 AD,UBA5 AD^1–330; listed as R1‐R2‐R3325–404,No interactions
same,ΔG,LC3B,-7.33 kcal/mol
same,ΔS,LC3B,8.86 cal mol^−1 K^−1
same,−T*ΔS,LC3B,-2.64 kcal/mol
same,KA*10^−6,"LC3B; value is KA × 10^−6, ± = fitting error",0.24 ± 0.09 M^−1
